Numbering of substitutions follows the chain as printed. Each block holds one binder with its values, some of them ahead of it.
What was measured:
[1] = target: T1, free FIXa (activated Factor IX) (human, UniProt P00740 47-191; P00740 227-461); experiment: BLI, 200 nM FIXa in HBS with or without 5 mM CaCl2
T1 construct: BLI antigen bought from Haematologic Technologies (HCIXA-0050); also called factor IXa

[2] = target: T2, FIXa-SM (FIXa+EGR-CMK) (human, UniProt P00740 47-191; P00740 227-461, EGR-CMK (L-Glu-Gly-Arg chloromethyl ketone) covalently bound to the active site); experiment: BLI; class meaning: paragraph 914
T2 construct: BLI antigen bought from Haematologic Technologies (HCIXA-EGR); also called FIXa with substrate mimic

[3] = target: T1, free FIXa (activated Factor IX); experiment: cell-based or functional assay
[4] = target: T1, free FIXa (activated Factor IX); experiment: not stated (FIG. 24B)
[5] = target: T3, FX zymogen (Homo sapiens (Human), UniProt P00742 41-179; P00742 183-488); experiment: not stated (FIG. 24B)
T3 construct: Light and heavy chain of secreted FX zymogen, disulfide linked; also called Factor X zymogen; factor X zymogen
T3 sequence (P00742 41-179, chain 1 of 2): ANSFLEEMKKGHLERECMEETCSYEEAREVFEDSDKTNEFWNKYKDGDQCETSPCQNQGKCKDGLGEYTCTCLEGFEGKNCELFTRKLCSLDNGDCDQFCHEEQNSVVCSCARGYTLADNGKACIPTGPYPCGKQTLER
T3 sequence (P00742 183-488, chain 2 of 2): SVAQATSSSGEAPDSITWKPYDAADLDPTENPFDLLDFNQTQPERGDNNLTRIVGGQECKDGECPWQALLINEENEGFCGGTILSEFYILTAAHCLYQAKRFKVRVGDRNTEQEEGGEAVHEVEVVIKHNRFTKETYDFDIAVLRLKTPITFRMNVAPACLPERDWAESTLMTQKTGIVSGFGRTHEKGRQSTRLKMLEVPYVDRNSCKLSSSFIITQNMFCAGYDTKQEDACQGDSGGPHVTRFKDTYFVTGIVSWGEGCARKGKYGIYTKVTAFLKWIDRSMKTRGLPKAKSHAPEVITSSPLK

[6] = target: T4, FIX zymogen (non-activatable FIX) (human, UniProt P00740 47-461); experiment: not stated (FIG. 24B)
T4 construct: also called FIXn; Factor IX zymogen

[7] = target: T2, FIXa-SM (FIXa+EGR-CMK); experiment: BLI co-binding: biotinylated FIXa-SM on streptavidin sensor, then 100 nM bispecific, then 200 nM FX
Description: Following incubation in Tris-buffered saline supplemented with 0.1% bovine serum albumin and 5 mM CaCl₂ (referred to as buffer in FIG. 21), the biosensors were then incubated with biotinylated FIXa-SM produced in-house. […] Finally, the same biosensors were incubated with 200 nM of non-biotinylated FX (non-activated Factor X).

[8] = target: T1, free FIXa (activated Factor IX); experiment: BLI, IgG on AHQ sensor, 100 nM antigen (the weaker partner)
Description: BLI was performed on the OctetRed94 or the Octet HTX system, according to standard procedure. Briefly, biosensors were equilibrated in Tris-buffered saline supplemented with 5 mM CaCl₂ and 0.1% bovine serum albumin (TBSFCa). Plates were then transferred to the instrument. A soak step was performed on the instrument, with incubation of the biosensors for 60 seconds in TBSFCa. […] Following this, the biosensors were incubated in TBSFCa for 60 seconds to establish baseline. Next, the biosensors were transferred to wells containing the desired antigen (100 nM in TBSFCa) and incubated for 90 seconds. Finally, the sensors were transferred to TBSFCa alone for 90 seconds incubation.

[9] = target: T3, FX zymogen; experiment: not stated (Table 3)
[10] = target: T5, FXa-SM (FXa+EGR-CMK) (human, UniProt P00742 41-179; P00742 235-488, EGR-CMK covalently bound to the active site); experiment: BLI; class meaning: paragraph 285
T5 construct: Bought from Haematologic Technologies (HCXA-EGR); also called covalently modified FXa; FXa mimic
T5 sequence (P00742 41-179, chain 1 of 2): as the sequence (P00742 41-179, chain 1 of 2) above
T5 sequence (P00742 235-488, chain 2 of 2): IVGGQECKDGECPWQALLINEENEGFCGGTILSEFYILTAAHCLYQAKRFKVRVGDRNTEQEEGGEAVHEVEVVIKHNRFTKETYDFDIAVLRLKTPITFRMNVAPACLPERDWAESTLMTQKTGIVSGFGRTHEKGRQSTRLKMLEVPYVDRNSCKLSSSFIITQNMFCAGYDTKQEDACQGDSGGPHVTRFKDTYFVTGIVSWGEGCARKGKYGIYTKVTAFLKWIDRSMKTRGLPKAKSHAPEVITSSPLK

[11] = target: T1, free FIXa (activated Factor IX); experiment: Fab mixed 1.5:1 with FIXa, complex purified by size exclusion chromatography
Excerpt: To do this, we first cloned, expressed, and purified only the Fab portion of each of these antibodies using standard methods. Subsequently, we mixed each Fab in a 1.5:1 molar ratio with FIXa in a calcium containing buffer and purified the resulting complex from excess Fab using size exclusion chromatography.

[12] = target: T1, free FIXa (activated Factor IX); experiment: yeast display selection and BLI as in Examples 1 and 5
[13] = target: T6, activated Factor X (FXa) (Homo sapiens (Human), UniProt P00742 41-179; P00742 235-488); experiment: BLI, antibody on AHQ sensor
T6 construct: also called free FXa; factor Xa
T6 sequence (P00742 41-179, chain 1 of 2): as the sequence (P00742 41-179, chain 1 of 2) above
T6 sequence (P00742 235-488, chain 2 of 2): as the sequence (P00742 235-488, chain 2 of 2) above

B1: BIIB-9-484 (antibody, V domains shown)
VH: EVQLVESGGGLVKPGGSLRLSCAASGFTFSSYSMNWVRQAPGKGLEWVSSISSSSSYIYYADSVKGRFTISRDNAKNSLYLQMNSLRAEDTAVYYCARDVGGYAGYYGMDVWGQGTTVTVSS
VL: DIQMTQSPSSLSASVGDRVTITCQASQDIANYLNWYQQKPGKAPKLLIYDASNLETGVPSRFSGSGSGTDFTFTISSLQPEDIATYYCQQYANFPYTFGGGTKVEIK
notes: IgG
binding result [1]: binds
binding result [2]: binds

B3: BIIB-9-1336 one-armed (antibody, V domains shown)
VH: B1 VH with S30G, S33D, S54G, S55E, D62E
VL: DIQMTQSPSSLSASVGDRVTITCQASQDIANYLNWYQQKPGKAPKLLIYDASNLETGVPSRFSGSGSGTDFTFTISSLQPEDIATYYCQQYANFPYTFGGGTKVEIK
rate of substrate (ADG299) cleavage by FIXa (amidolytic activity) [3]: 3 fold

B4: BS-027125 (bispecific antibody, V domains shown)
VH 1: B1 VH with S30G, S33D, S54G, S55E, D62E
VL 1: not shown
VH 2: EVQLVQSGAEVKKPGESLKISCKGSGYSFTTYWIGWVRQMPGKGLEWMGIIYPGDSDTRYSPSFQGQVTISADKSISTAYLQWSSLKASDTAMYYCARGRFRPRGRFDYWGQGTLVTVSS
VL 2: EIVMTQSPATLSVSPGERATLSCRASQSVSSNLAWYQQKPGQAPRLLIYGASTRATGIPARFSGSGSGTEFTLTISSLQSEDFAVYYCQQLFNHPPTFGGGTKVEIK
rate of substrate (ADG299) cleavage by FIXa (amidolytic activity) [3]: 3 fold
Kd [4]: 2 nM
Kd [5]: 20 nM
Kd [6]: 8 nM

B7: BIIB-9-612 (antibody, V domains shown)
VH: QVQLVQSGAEVKKPGASVKVSCKASGYTFTSYYMHWVRQAPGQGLEWMGIINPSGGSTSYAQKFQGRVTMTRDTSTSTVYMELSSLRSEDTAVYYCARDAGYHWYGMDVWGQGTTVTVSS
VL: EIVLTQSPATLSLSPGERATLSCRASQSVSRYLAWYQQKPGQAPRLLIYDASNRATGIPARFSGSGSGTDFTLTISSLEPEDFAVYYCQQSSLFPLTFGGGTKVEIK
notes: IgG
binding result [8]: binds

B8: BS-027 (antibody, V domains shown)
VH: B4 VH 2
VL: B4 VL 2
notes: also called anti-FX arm of BS-027025 and BS-027125; BS-027 FX homodimer
Kd [9]: 20 nM

B9: BIIB-9-397 (antibody, V domains shown)
VH: QVQLQESGPGLVKPSETLSLTCAVSGYSISSGYYWAWIRQPPGKGLEWIGSIYHSGSTYYNPSLKSRVTISVDTSKNQFSLKLSSVTAADTAVYYCARDVWYVGGFDPWGQGTLVTVSS
VL: DIQMTQSPSSLSASVGDRVTITCQASQDISNYLNWYQQKPGKAPKLLIYDASNLETGVPSRFSGSGSGTDFTFTISSLQPEDIATYYCQQSDDHPPTFGGGTKVEIK
notes: IgG
binding result [8]: binds

B11: BIIB-9-631 (antibody, V domains shown)
VH: QVQLVQSGAEVKKPGASVKVSCKASGYTFTSYYMHWVRQAPGQGLEWMGIINPSGGSTSYAQKFQGRVTMTRDTSTSTVYMELSSLRSEDTAVYYCARAENRGDYEAWGQGTLVTVSS
VL: DIQMTQSPSSVSASVGDRVTITCRASQGISRWLAWYQQKPGKAPKLLIYAASSLQSGVPSRFSGSGSGTDFTLTISSLQPEDFATYYCQQRTSFPLTFGGGTKVEIK
notes: IgG
binding result [8]: binds

B12: BIIB-12-894 (antibody, V domains shown)
VH: QLQLQESGPGLVKPSETLSLTCTVSGGSISSSSYYWGWIRQPPGKGLEWIGSIYYSGSTYYNPSLKSRVTISVDTSKNQFSLKLSSVTAADTAVYYCAREGAHSSMAGLDVWGQGTMVTVSS
VL: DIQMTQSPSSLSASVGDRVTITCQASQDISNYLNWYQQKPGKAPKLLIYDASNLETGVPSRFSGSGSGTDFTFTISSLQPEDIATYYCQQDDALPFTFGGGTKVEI
notes: IgG
binding result [10]: binds

Continued, values first:

rate of ATIII inhibition of FIXa (ATIII-FIXa complex band on gel) [3]: ~3 fold
rate of substrate (ADG299) cleavage by FIXa (amidolytic activity) [3]: 3 fold
B2: BIIB-9-1336 (antibody, V domains shown)
VH: B1 VH with S30G, S33D, S54G, S55E, D62E
VL: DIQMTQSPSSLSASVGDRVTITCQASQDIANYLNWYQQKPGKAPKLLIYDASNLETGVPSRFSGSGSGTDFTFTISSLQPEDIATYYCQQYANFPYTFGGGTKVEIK

binding result [7]: binds
B5: BIIB-9-484/BIIB-12-917 (bispecific antibody, V domains shown)
VH 1: B1 VH
VL 1: not shown
VH 2: B4 VH 2
VL 2: B4 VL 2

rate of ATIII inhibition of FIXa (ATIII-FIXa complex band on gel) [3]: ~3 fold
B6: BIIB-9-1335 (antibody, V domains shown)
VH: B1 VH with S33D, N35H, S54G
VL: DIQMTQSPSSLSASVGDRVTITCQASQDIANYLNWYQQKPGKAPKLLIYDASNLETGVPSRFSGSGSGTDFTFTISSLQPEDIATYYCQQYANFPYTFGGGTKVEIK

binding result [8]: binds
B10: BIIB-9-578 (antibody, V domains shown)
VH: QLQLQESGPGLVKPSETLSLTCTVSGGSISSSSYYWGWIRQPPGKGLEWIGSISYSGSTYYNPSLKSRVTISVDTSKNQFSLKLSSVTAADTAVYYCARDKYQDYSFDIWGQGTMVTVSS
VL: B11 VL with S30D, R31S, R91A, T92N, S93F, F94L, L96F
notes: IgG

binding result [10]: binds
B13: BIIB-12-1320 (antibody, V domains shown)
VH: QLQLQESGPGLVKPSETLSLTCTVSGGSISSSSYYWGWIRQPPGKGLEWIGSIYYSGSTYYNPSLKSRVTISVDTSKNQFSLKLSSVTAADTAVYYCARGSGLLVREHYYYYMDVWGKGTTVTVS
VL: B11 VL with V11L, G28S, R31S, W32Y, A34N, R91A, T92D, S93D, F94T, L96W
notes: IgG

binding result [10]: binds
B14: BIIB-12-1321 (antibody, V domains shown)
VH: QVQLVQSGAEVKKPGSSVKVSCKASGGTFSSYAISWVRQAPGQGLEWMGGIIPIFGTANYAQKFQGRVTITADESTSTAYMELSSLRSEDTAVYYCARTPDTSSATDWGQGTLVTVSS
VL: B7 VL with L4M, R31S, A51S, S91F, S92T, L93N, F94L, L96Y
notes: IgG

binding result [11]: binds
B15: Fab portion of BIIB-9-484 (Fab, V domains shown)
VH: B1 VH
VL: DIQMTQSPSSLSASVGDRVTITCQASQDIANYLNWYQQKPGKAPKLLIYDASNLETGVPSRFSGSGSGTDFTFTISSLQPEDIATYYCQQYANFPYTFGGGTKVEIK
notes: Fab

binding result [12]: binds
B16: BIIB-9-3764 (antibody, V domains shown)
VH: B1 VH with S30G, S33D, S54G, S55E, D62E
VL: DIQMTQSPSSLSASVGDRVTITCGANQYISDYLNWYQQKPGKAPKLLIYDAANLHTGVPSRFSGSGSGTDFTFTISSLQPEDIATYYCQQYARFPYTFGGGTKVEIK

binding result [12]: binds
B17: BIIB-9-3745 (antibody, V domains shown)
VH: QVQLVQSGAEVKKPGASVKVSCKASGYTFTGYPMHWVRQAPGQGLEWMGSINPSRGSTSYAQKFQGRVTMTRDTSTSTVYMELSSLRSEDTAVYYCARDGPRVSDYYMDVWGKGTTVTVSS
VL: B7 VL with R31S, S91R, S92D, L93N, F94W, L96F
notes: daughter of BIIB-9-619

binding result [13]: no binding (tested: 250 nM)
B18: BIIB-12-917 (antibody, V domains shown)
VH: B4 VH 2
VL: B4 VL 2
notes: IgG

Reference: patent US20230192896A1 (BIOVERATIV THERAPEUTICS, published 2023)
